Laboratory results as given in patent EP4600270A1 (ImnoTech GmbH, dated 2025).

T1: human CD7 (cluster of differentiation 7) (human, UniProt P09564 26-240)
T1 construct: also called CD7 target antigen; CD7 surface marker
T1 sequence: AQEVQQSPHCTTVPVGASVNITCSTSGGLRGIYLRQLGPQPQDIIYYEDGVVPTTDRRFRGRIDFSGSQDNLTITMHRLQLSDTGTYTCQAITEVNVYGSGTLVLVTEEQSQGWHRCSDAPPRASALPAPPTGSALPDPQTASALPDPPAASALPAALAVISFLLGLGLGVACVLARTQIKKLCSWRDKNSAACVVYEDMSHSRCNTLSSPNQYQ


These binders were tested against T1, human CD7 (cluster of differentiation 7) (assay: flow cytometry titration on human CD8+ T cells, one-site specific binding fit).

| Kd [nM] | Binder |
| --- | --- |
| 5.66 | SEQ ID NO 4 (VHH, Single domain antibody against human CD7; also called anti-CD7 sdAb) VHH: QVQLQESGGGLVQAGDSLRLSCAASGLTVSSYGMGWFRQAPGKEREFVVDISRGGGSTSYADSVKGRFTIARDNAKNTLYLQMNSLKPEDTAVYSCAARKYAHYEYWGQGTQVTVSS |
| 8.16 | SEQ ID NO 8 (VHH, Single domain antibody against human CD7; also called anti-CD7 sdAb) VHH: QVQLQESGGGLVQTGDSLRLSCAASGLTVSSYGMGWFRQAPGKEREFVADISRGGGSTLYADSVKGRFTISRDNLKNTLYLQMNSLKPEDTAVYSCAARKYAEWNYWGQGTQVTVSS |
| 4.04 | SEQ ID NO 9 (VHH, Single domain antibody against human CD7; also called anti-CD7 sdAb) VHH: QVQLQESGGGLVQAGDSLRLSCAASGLTVSSYGMGWFRQAPGKEREFVADISRGGGSTLYADSVKGRFTISRDNGKNTLYLQINSLKPEDTAVYSCAARKYAEWDYWGQGTQVTVSS |
| 11 | SEQ ID NO 7 (VHH, Single domain antibody against human CD7; also called anti-CD7 sdAb) VHH: QVQLQESGGGLVQAGDSLRLSCAASGLTVSMYGMGWFRQAPGKEREFVADISRGGGSTSYTDSVKGRFTISRDNAKNTLYLQMNSLKPEDTAVYSCAARKYAHYEYRGQGTQVTVSS |
| 3.9 | SEQ ID NO 13 (VHH, Single domain antibody against human CD7; also called anti-CD7 sdAb) VHH: QVQLQESGGGLVQSGGSLRLSCAASRRIFEINVMGWYRQAPEKQRELVGTITSFGGTNYADSVKGRFTISADYAKNTMYLQMNSLNPEDTAVYYCNAHYFSNDYWGQGTQVTVSS |
| 6.34 | SEQ ID NO 2 (VHH, Single domain antibody against human CD7; also called anti-CD7 sdAb) VHH: QVQLQESGGGLVQAGGSLRLSCAASGRTFSDYLMGWFRQTPGKEREFVAAIYWNAGSTYYADSVKGRFTISRDNTKNTMYLQMNSLKPEDTAVYYCAAGQRGLAYARTYDYDYWGQGTQVTVSS |
